Where no end group is shown, it is not given here.

Common to all, as to assay: cell-based or functional assay
Experiment [1] addresses T1, BDKRB1 (UniProt P46663 1-353).
T1 sequence (looked up): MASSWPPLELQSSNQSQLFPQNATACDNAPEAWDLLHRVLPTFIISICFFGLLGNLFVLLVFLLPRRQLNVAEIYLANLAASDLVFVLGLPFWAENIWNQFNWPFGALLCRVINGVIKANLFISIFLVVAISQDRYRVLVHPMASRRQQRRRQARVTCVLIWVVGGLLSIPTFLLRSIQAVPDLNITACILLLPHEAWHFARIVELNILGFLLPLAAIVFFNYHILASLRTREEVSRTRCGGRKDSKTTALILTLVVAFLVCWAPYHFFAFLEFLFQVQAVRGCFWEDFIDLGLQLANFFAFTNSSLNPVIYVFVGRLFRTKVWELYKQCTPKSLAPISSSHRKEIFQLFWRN

Experiment [2] addresses GCGR (UniProt P47871 26-477).
For experiment [3], the target named is T2, CCR9 (UniProt P51686 1-369, limits assumed).
T2 sequence (looked up): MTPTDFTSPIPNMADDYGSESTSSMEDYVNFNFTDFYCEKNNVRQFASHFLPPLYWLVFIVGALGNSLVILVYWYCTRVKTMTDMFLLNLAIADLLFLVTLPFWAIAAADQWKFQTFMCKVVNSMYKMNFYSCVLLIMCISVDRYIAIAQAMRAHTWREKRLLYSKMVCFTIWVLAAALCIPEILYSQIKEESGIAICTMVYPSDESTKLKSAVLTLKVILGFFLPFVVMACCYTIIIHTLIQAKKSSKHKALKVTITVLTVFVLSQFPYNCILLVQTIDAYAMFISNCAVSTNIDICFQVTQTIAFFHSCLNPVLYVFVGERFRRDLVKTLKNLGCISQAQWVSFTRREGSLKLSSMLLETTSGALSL

Experiment [4] deals with OPRM1 (UniProt P35372 1-400).
The target in experiment [5] is T3, FPRL1 (UniProt P25090 1-351).
T3 sequence (looked up): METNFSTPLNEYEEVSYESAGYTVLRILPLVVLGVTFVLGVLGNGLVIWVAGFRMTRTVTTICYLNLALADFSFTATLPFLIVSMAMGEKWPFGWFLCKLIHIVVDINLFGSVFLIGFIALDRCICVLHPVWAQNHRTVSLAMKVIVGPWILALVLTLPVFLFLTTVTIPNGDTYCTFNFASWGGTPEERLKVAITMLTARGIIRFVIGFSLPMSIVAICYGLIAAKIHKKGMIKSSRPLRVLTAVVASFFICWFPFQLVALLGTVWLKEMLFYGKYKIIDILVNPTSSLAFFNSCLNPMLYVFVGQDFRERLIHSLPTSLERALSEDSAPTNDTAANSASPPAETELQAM

The target of experiment [6] is T4, CXCR5 (UniProt P32302 1-372).
T4 sequence (looked up): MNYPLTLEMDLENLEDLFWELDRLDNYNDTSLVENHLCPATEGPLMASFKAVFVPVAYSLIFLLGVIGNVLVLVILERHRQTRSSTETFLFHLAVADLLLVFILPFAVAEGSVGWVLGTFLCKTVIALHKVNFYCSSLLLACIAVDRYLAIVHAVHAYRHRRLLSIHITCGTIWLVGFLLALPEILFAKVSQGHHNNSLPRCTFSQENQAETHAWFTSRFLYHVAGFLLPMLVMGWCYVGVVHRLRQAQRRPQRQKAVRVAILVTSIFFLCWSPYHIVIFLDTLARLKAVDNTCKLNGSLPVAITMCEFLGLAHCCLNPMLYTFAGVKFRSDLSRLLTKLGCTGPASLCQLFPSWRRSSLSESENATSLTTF

For experiment [7], the target named is MC5R (UniProt P33032 1-325).
In experiment [8] the target is SSTR1 (UniProt P30872 1-391).
Experiment [9] has as its target CXCR4 (UniProt P61073 1-352).
The target of experiment [10] is GPR35 (UniProt Q9HC97 1-309, limits assumed).
For experiment [11], the target named is T5, TBXA2R (UniProt P21731 1-343, limits assumed).
T5 sequence (looked up): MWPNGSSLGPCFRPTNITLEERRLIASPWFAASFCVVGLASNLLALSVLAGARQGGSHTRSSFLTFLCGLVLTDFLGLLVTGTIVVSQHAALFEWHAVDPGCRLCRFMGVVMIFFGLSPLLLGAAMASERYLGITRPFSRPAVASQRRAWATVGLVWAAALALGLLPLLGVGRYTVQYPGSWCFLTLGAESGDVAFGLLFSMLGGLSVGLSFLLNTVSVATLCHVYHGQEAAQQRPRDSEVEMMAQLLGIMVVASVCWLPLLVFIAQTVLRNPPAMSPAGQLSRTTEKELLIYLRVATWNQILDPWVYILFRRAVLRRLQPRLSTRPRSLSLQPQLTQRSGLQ

The target of experiment [12] is T6, MRGPRX2 (UniProt Q96LB1 1-330).
T6 sequence (looked up): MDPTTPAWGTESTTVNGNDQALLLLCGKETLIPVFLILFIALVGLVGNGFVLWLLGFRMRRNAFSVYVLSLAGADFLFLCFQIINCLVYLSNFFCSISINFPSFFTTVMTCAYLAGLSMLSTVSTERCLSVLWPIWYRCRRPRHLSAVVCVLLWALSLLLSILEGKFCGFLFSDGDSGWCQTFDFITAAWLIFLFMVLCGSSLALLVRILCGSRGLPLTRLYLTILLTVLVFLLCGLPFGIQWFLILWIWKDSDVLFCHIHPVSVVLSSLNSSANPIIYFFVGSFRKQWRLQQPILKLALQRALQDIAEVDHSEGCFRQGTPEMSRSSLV

For experiment [13], the target named is CALCRL-RAMP1 (UniProt Q16602 23-461; O60894 27-148).
Chain of CALCRL-RAMP1 (Q16602 23-461 limits assumed, chain 1 of 2): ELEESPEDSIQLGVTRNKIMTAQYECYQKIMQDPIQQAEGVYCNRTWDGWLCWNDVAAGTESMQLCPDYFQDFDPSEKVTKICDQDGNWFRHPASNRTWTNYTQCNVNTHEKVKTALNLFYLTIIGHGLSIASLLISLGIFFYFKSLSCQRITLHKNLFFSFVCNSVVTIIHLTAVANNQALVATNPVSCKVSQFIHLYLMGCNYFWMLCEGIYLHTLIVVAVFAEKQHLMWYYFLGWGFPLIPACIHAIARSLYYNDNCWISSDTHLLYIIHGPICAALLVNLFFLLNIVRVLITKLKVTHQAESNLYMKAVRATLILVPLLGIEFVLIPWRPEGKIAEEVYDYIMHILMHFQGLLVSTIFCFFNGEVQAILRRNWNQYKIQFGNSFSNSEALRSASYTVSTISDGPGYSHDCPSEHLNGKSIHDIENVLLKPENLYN
Chain of CALCRL-RAMP1 (O60894 27-148 limits assumed, chain 2 of 2): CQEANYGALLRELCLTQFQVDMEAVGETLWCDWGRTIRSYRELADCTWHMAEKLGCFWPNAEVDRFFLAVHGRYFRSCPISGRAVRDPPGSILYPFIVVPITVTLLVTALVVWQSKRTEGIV

Chain of CXCR4 (P61073 whole entry): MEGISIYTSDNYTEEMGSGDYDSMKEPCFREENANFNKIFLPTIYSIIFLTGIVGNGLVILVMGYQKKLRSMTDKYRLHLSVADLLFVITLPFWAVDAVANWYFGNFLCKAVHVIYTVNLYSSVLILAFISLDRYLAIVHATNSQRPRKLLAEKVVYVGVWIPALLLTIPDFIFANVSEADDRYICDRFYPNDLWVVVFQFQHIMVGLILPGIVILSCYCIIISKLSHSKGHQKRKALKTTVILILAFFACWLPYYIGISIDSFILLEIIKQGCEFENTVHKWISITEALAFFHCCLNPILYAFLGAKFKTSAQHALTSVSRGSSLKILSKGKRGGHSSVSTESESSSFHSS
Chain of SSTR1 (P30872 whole entry): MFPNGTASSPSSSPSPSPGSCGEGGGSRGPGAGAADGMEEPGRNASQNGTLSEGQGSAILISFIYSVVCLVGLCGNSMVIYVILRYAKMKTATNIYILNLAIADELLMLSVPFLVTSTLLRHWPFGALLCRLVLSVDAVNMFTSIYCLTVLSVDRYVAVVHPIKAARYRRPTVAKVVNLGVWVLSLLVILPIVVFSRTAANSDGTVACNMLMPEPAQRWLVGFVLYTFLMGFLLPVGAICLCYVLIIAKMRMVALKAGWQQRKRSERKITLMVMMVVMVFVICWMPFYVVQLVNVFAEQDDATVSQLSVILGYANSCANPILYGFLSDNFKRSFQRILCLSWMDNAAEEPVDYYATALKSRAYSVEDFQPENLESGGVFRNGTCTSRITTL
Chain of GPR35 (Q9HC97 whole entry): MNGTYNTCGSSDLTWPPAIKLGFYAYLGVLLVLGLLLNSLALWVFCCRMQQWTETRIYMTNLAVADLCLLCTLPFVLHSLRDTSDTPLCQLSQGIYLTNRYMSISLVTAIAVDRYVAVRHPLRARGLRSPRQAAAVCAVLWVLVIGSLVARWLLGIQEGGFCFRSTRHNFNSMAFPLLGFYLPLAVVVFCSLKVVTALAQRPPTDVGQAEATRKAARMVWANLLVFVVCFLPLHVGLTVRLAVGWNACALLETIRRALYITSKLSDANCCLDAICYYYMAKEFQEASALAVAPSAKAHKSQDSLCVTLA
Chain of OPRM1 (P35372 whole entry): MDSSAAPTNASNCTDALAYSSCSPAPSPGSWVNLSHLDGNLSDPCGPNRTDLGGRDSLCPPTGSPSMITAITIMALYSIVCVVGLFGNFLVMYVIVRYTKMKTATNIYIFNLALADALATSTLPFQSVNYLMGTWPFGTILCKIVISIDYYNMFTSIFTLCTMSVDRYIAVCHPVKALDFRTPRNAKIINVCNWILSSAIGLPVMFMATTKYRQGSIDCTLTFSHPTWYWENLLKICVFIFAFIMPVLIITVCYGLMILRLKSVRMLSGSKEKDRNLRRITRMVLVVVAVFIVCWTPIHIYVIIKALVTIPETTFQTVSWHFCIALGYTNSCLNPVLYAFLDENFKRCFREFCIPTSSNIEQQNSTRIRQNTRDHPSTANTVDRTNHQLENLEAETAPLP
Chain of MC5R (P33032 whole entry): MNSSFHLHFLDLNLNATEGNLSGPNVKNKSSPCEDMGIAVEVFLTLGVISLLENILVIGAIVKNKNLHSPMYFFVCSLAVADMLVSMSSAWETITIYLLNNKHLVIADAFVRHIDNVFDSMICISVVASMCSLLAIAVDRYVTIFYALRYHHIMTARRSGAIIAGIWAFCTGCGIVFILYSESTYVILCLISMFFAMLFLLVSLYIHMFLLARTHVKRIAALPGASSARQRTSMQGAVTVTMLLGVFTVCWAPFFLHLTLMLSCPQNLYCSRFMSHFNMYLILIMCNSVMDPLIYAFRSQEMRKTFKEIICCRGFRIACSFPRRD

As to QATVGDVNTDRPGLLDLK (also: synthesised on Rink amide resin, C-terminal amide not given here outright) [octadecaneuropeptide (ODN)], the “% Activity, arrestin, antagonist mode, 2.5 uM” value (“% Activity, arrestin” below) is -5.7% in experiment [1]; -17.2% in experiment [2]; -10.1% in experiment [3]; -21.1% in [4]; -17.7% in experiment [5]; -18.9% in [6]. In addition, the “% Activity, arrestin” value is 5.9% in experiment [7]; -1.6% in experiment [8]; -28.5% in [9]; -12.2% in [10]; 16.2% in experiment [11]; -23.5% in [12]. Further, the “% Activity, arrestin” value in [13] is -19%.

Source of the values: patent US20260184748A1 (University of Pennsylvania, published 2026).
